Data: patent US20110059095A1 (Regeneron, published 2011)
Numbering of substitutions follows the chain as printed. Where no end group is shown, it is not given here. The star is where a group is joined. Biotin = O=C1N[C@H]2[C@H](CS[C@H]2CCCCC(=O)*)N1

B1: H2M609N (antibody, V domains shown)
VH: EVQLVESGGGLVQPGRSLRLSCAASGFTFDDYAMHWVRQAPGKGLEWVSGISWNSGSKGFADSVKGRFTISRDNAKNSLYLQMNSLRVEDTALYYCAKENWSFDYWGQGTLVTVSS
VL: DIVMTQTPLSSPVTLGQPASISCRSSQSLVHSDGNIYLSWLQQRPGQPPRLLIYKISNRFSGVPDRFSGSGAGTDFTLKISRVEAEDVGIYYCMQASHFPYTFGQGTKLEIK
notes: chimeric: human variable, mouse constant domains
B2: H1M613N (antibody, V domains shown)
VH: EVQLVESGGGLVQPGRSLRLSCAASGFTFDDYAMHWVRQAPGKGLEWVSGISWNSGSIGYADSVKGRFTISRDNAKNSLYLQMNSLRAEDTALYYCAKDRFPPYKYNSGGFSDAFEIWGQGTMVTVSS
VL: not shown
notes: as for B1
B3: H1M615N (antibody, V domains shown)
VH: EVQLVESGGGVVQPGRSLRLSCAASGFTFDDYTMHWVRQVPGKDLKWVSGITWNGGRKAYADSVKGRFTISRDNAKNSLFLQMNSLRAEDTAFYYCAKEDEAFDYWGQGTLVTVSS
VL: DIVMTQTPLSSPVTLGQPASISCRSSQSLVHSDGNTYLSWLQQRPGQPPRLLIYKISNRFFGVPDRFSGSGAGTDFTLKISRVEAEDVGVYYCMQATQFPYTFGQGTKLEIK
notes: as for B1
B4: H1M616N (antibody, V domains shown)
VH: B1 VH with V12A, L20V, A23S, T28N, K58R, F60Y, V88A, A97V, S102A, D104E
VL: B1 VL with Q27H, N35S, I36T, I90L, S97T, H98Q
notes: as for B1
B5: H1M619N (antibody, V domains shown)
VH: B1 VH with P14A, K58R, F60Y, Y80H, N84Y, V88A
VL: B1 VL with I36T, N58Y, E84A, A85T, I90V, S97T, H98Q, F99L
notes: as for B1
B6: H3M620N (antibody, V domains shown)
VH: EVQLVESGGNVVRPGGSLRLSCAASGFTFDDYGMTWVRQVPGKGLEWVSGINWNGGSTDYADSVKGRFTISRDNAKNSLYLQMNSLRAEDTALYYCARDKGFYGMDVWGQGTTVTVSS
VL: DIVMTQSPDSLAVSLGERATINCKSSQNPLYNSNKKKYLAWYQQKPGQPPKLVIYWASTRESGVPDRFSGSGSGTDFTLTITSLQAEDVAVYYCQQYYSTPYTFGQGTKLEIK
notes: as for B1

Target: T1, Peptide A (human PAR-2), unbiotinylated (Human)
T1 construct: also called Peptide A No Biotin
T1 peptide: GTNRSSKGRSLIGKVDGT
Assay: peptide ELISA
Procedure: (§1) Anti-PAR-2 antibodies were tested for their ability to bind to the PAR-2 peptides. Various PAR-2 Peptides (Table 3) were coated onto 96-well plates at a concentration of 2 μg/ml and incubated overnight followed by blocking in a suitable blocking agent for one hour. […] Purified anti-PAR-2 antibodies were added to the plate coated with PAR-2 peptides to a final concentration ranging from 0.2 to 2.0 μg/ml and incubated for one hour at room temperature. Detection of bound antibodies was determined with Horse-Radish Peroxidase (HRP) conjugated anti-mouse or human IgG (Jackson Immuno Research Lab, West Grove, Pa.) and developed by standard colorimetric response using tetramethylbenzidine (TMB) substrate. Absorbance was read at OD₄₅₀ for 0.1 second.
B1 gave an OD450 of 1 to 4 od. Binder B2 has an OD450 of 1 to 4 od. Binder B3 has an OD450 of 1 to 4 od. With B4 the OD450 was 1 to 4 od. Work on B5 yielded an OD450 of 1 to 4 od. Binder B6 has an OD450 of 1 to 4 od.

Target: T2, Peptide A (human PAR-2), N-terminal biotinylated (Human, N-terminal biotin via G4S linker)
T2 construct: also called Peptide A N-Term
T2 peptide: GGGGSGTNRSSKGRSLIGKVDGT
Assay: peptide ELISA
Procedure: as §1
For B1, the OD450 was 1 to 4 od. In the case of B2, the OD450 is reported as 1 to 4 od. With B3 the OD450 was 1 to 4 od. In the case of B4, the OD450 is reported as 1 to 4 od. B5 gave an OD450 of 1 to 4 od. B6 gave an OD450 of 0.5 to 0.99 od.

Each binder was assayed against T3, Peptide A (human PAR-2), C-terminal biotinylated (Human, C-terminal biotin via G4S linker) (assay: peptide ELISA).
T3 construct: also called Peptide A C-Term
Procedure: as §1
In the case of B1, the OD450 is reported as 1 to 4 od. Binder B3 has an OD450 of 1 to 4 od. Work on B4 yielded an OD450 of 1 to 4 od. With B5 the OD450 was 1 to 4 od. B6 gave an OD450 of 1 to 4 od.

Target: T4, Peptide B (human PAR-2), unbiotinylated (Human)
T4 construct: also called Peptide B No Biotin
T4 peptide: SLIGKVDGTSHVTG
Assay: peptide ELISA
Procedure: as §1
B1 was tested, and the OD450 was 0 to 0.09 od. B3 was tested, and the OD450 was 0 to 0.09 od. B4 gave an OD450 of 0 to 0.09 od. With B5 the OD450 was 0 to 0.09 od. For B6, the OD450 was 0 to 0.09 od.

Target: T5, Peptide B (human PAR-2), N-terminal biotinylated (Human)
T5 construct: also called Peptide B N-Term
T5 peptide: Biotin-GGGGSSLIGKVDGTSHVTG
Assay: peptide ELISA
Procedure: as §1
Work on B1 yielded an OD450 of 0 to 0.09 od. With B2 the OD450 was 0.5 to 0.99 od. B3 showed an OD450 of 0 to 0.09 od. In the case of B4, the OD450 is reported as 0 to 0.09 od. Work on B5 yielded an OD450 of 0 to 0.09 od. B6 was tested, and the OD450 was 0 to 0.09 od.

Target: T6, Peptide B (human PAR-2), C-terminal biotinylated (Human, not fully specified)
T6 construct: also called Peptide B C-Term
T6 peptide: SLIGKVDGTSHVTGGGGGS-biotin
Assay: peptide ELISA
Procedure: as §1
Binder B1 has an OD450 of 0 to 0.09 od. For B3, the OD450 was 0 to 0.09 od. Work on B4 yielded an OD450 of 0 to 0.09 od. Binder B5 has an OD450 of 0 to 0.09 od. For B6, the OD450 was 0 to 0.09 od.

Target: T7, Peptide C (human PAR-2), N-terminal biotinylated (Human)
T7 construct: also called Peptide C N-Term
T7 peptide: Biotin-GGGGSSLIGKV
Assay: peptide ELISA
Procedure: as §1
Binder B1 has an OD450 of 0 to 0.09 od. B2 showed an OD450 of 1 to 4 od. B3 gave an OD450 of 0 to 0.09 od. B4 showed an OD450 of 0 to 0.09 od. B5 was tested, and the OD450 was 0 to 0.09 od. B6 was tested, and the OD450 was 0 to 0.09 od.

Target: T8, Peptide C (human PAR-2), C-terminal biotinylated (Human)
T8 construct: also called Peptide C C-Term
T8 peptide: SLIGKVGGGGS-biotin
Assay: peptide ELISA
Procedure: as §1
B1 showed an OD450 of 0 to 0.09 od. B3 gave an OD450 of 0 to 0.09 od. For B4, the OD450 was 0 to 0.09 od. In the case of B5, the OD450 is reported as 0 to 0.09 od. In the case of B6, the OD450 is reported as 0 to 0.09 od.

The binders below were run against T9, full length human PAR-2 (human, UniProt P55085 26-397) (assay: cell ELISA, 10 ug/ml antibody).
T9 construct: overexpressed on HEK293-derived 293/D9 cells; also called 293/D9/hPAR-2rec cells
T9 sequence (P55085 26-397 G138A limits assumed): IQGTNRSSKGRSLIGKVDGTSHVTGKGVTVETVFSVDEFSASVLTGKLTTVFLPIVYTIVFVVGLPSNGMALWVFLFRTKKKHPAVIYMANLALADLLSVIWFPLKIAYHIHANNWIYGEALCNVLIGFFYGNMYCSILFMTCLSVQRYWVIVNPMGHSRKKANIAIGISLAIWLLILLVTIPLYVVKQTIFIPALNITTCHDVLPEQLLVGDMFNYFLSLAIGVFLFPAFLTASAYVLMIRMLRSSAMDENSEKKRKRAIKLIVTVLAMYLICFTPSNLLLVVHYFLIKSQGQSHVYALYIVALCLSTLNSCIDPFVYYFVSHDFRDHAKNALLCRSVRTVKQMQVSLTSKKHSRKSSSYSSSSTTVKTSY
From the text: HEK293 cells were transfected with an NF-κB-luciferase-IRES-eGFP reporter plasmid. […] A clonal cell line, named D9, having low background levels of luciferase activity and high levels of eGFP when induced with IL-1β was made by a series of successive sorts of cell populations using flow cytometry. The 293/D9 cell line was then separately transfected with human PAR-2 or mouse PAR-2 to create the stable cell lines 293/D9/h PAR-2rec and 293/D9/m PAR-2rec, respectively.
Binding of anti-PAR-2 antibodies to 293/D9/hPAR-2rec cells was determined by ELISA. 293/D9 and 293/D9/hPAR-2rec cells were plated at a density of 5×10⁴ cells/well in media and incubated overnight at 37° C. and 5% CO₂. Purified antibody was added to the cells to a final concentration of 10 μg/ml and incubated at room temperature for one hour. Cells were then fixed and washed before detection of bound antibodies with HRP conjugated anti-mouse IgG and developed by standard colorimetric response using TMB substrate. Absorbance was read at OD₄₅₀ for 0.1 second.
With B3 the “A450 ratio (293/D9/hPAR-2rec to 293/D9 cells)” value was 2.18. With B4 the “A450 ratio (293/D9/hPAR-2rec to 293/D9 cells)” value was 2.78.

Target: T1, Peptide A (human PAR-2), unbiotinylated
Assay: SPR, antibody captured, steady state
Procedure: Equilibrium dissociation constants (KD values) for antigen binding to selected purified PAR-2 antibodies were determined by surface kinetics using a real-time surface plasmon resonance biosensor assay. Antibody was captured on either a rabbit anti-mouse IgG polyclonal antibody (GE Healthcare, Piscataway, N.J.) surface or a goat anti-human IgG polyclonal antibody (Jackson Immuno Research Lab, West Grove, Pa.) surface created through direct amine chemical coupling to a BIACORE™ CM5 sensor chip to form a captured antibody surface. […] Antigen-antibody binding and dissociation were monitored in real time at room temperature. Kinetic analysis was performed to calculate KD and half-life of antigen/antibody complex dissociation (Table 10). For those antibodies where no T_{1/2} value is shown, steady state analysis was used to calculate the KD value. NB: no binding observed under current experimental conditions. ND: not determined.
Binder B2 has a Kd of 2100 nM. For B3, the Kd was 162 nM. Work on B4 yielded a Kd of 144 nM. For B5, the Kd was 164 nM.
